Measured values taken from the supplement of paper PMC9170038.

Test system: MS2 coat protein
Assay: apparent KD of MS2 coat protein; designed switch direction (-1 OFF switch, 1 ON switch): 1; higher = weaker reporter binding
Method in brief: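 Stalled E. coli RNA polymerase transcribed designed RNA switches on Illumina chips, which were then titrated with SNAP-549-labelled MS2 coat protein, doubling from 0.7 or 1.5 nM to 3 µM. Steps lasted from 0.8–1.5 h at the lowest concentration to 10–20 min at the highest. The apparent KD is each design's median over clusters of curve-fitted normalised fluorescence.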

[1] = Eterna round: R95, input ligand: FMN 200 uM
[2] = Eterna round: R95, input ligand: microRNA oligo, concentration not stated
[3] = Eterna round: R95, input ligand: none
[4] = input ligand: microRNA oligo, concentration not stated

“AGUCCAGCCAGAGCUGGACAAAAGCAUGUACAUGAGGAUCACCCAUGUUCAUGUACAAGCUUUUUGCUCGUCAAAAG [Mat - hsa-mir-208a - Mod of JL - 69] (puzzle: Sensor for hsa-mir-208a)” was tested, and the “apparent KD of MS2 coat protein” value [1] was 304 nM, the “apparent KD of MS2 coat protein” value [2] was 17.7 nM and the “apparent KD of MS2 coat protein” value [3] was 233 nM.
With “GAGUAGUACGGAGGAUAUGGGCAGAACAAGACACCAGAAGGCCGACAUGAGGAUGCUGGACAUGAGGAUCACCCAUGUACCUGA [Same State 1 S3] (Eterna round: R96, puzzle: Same State NG 1)” the “apparent KD of MS2 coat protein” value (input ligand: FMN 200 uM) was 22.8 nM, the “apparent KD of MS2 coat protein” value [4] was 92.6 nM and the “apparent KD of MS2 coat protein” value (input ligand: none) was 85.4 nM.
In the case of “UUACUCAUGUAAGGAUAUGCAGCCGUUUCGGCUGCAGAAGGUACUAUAAUACAUGAGGAUCACCCAUGUCUUUUUAAUUUUUAC [JL SSNG1 1.28] (Eterna round: R96, puzzle: Same State NG 1)”, the “apparent KD of MS2 coat protein” value (input ligand: FMN 200 uM) is reported as 87.5 nM, the “apparent KD of MS2 coat protein” value [4] is reported as 24.4 nM and the “apparent KD of MS2 coat protein” value (input ligand: none) is reported as 54.2 nM.
For “GCCAACGCAUGAGGAUAUGGCACCUUAUUGGUGCCAGAAGGCAUGUCUAUUGACAUGAGGAUCACCCAUGUAUUAUAGUUGGCA [Fiskers NG1ss - 15] (Eterna round: R96, puzzle: Same State NG 1)”, the “apparent KD of MS2 coat protein” value (input ligand: FMN 200 uM) was 114 nM, the “apparent KD of MS2 coat protein” value [4] was 369 nM and the “apparent KD of MS2 coat protein” value (input ligand: none) was 882 nM.
With “ACUUAGUACAAUUUAGAUCUACAUGAGGAUCACCCAUGUACUGAGGAUAUCAGCUCGUUUAGAGCUGAGAAGGCAGAAGUACUU [SSNG3/8-A3] (Eterna round: R96, puzzle: Same State NG 3)” the “apparent KD of MS2 coat protein” value (input ligand: FMN 200 uM) was 54.7 nM, the “apparent KD of MS2 coat protein” value [4] was 234 nM and the “apparent KD of MS2 coat protein” value (input ligand: none) was 207 nM.
With “UAGCGCUGUCGAGAGGAUAUGCGGUGAUGGACAUGAGGAUCACCCAUGUUAGCGAUAGCAUUACGGUAGAAGGCUCUACAGCUGU [salish99_ss2_r3_093] (puzzle: Same State 2)” the “apparent KD of MS2 coat protein” value [2] was 177 nM.
For “AUUAUACAUGAGGAUCACCCAUGUCAACAAAGUCGAGGAUAUGGGCAAAUAAAAUAAGAACCAGAAGGCGAAUAAU [salish99_ss1_r3_069] (puzzle: Same State 1)”, the “apparent KD of MS2 coat protein” value [1] was 51.3 nM, the “apparent KD of MS2 coat protein” value [2] was 155 nM and the “apparent KD of MS2 coat protein” value [3] was 259 nM.
In the case of “GCUAGAAAUAAAGCCAACAUGAGGAUCACCCAUGUAUGUUGGUAGGAUAUCGUUUGCAAAGCAAACGAGAAGGGCUAAUCUAGC [Mat - Same State NG 3 - JL Mod - D65] (Eterna round: R96, puzzle: Same State NG 3)”, the “apparent KD of MS2 coat protein” value (input ligand: FMN 200 uM) is reported as 76.4 nM, the “apparent KD of MS2 coat protein” value [4] is reported as 63.8 nM and the “apparent KD of MS2 coat protein” value (input ligand: none) is reported as 69.8 nM.
With “GGCCUCUGUCAAGGAUAUGCUACCGUUUCGGUAGCAGAAGGUGAUCACAUGAGGAUCACCCAUGUUUAGGCCAACAGGCCCGCC (Eterna round: R96, puzzle: Same State NG 1)” the “apparent KD of MS2 coat protein” value (input ligand: FMN 200 uM) was 1420 nM, the “apparent KD of MS2 coat protein” value [4] was 445 nM and the “apparent KD of MS2 coat protein” value (input ligand: none) was 1070 nM.
“AUUUAACAAGCUUUUUGCUCGUCUUAUAAACAUGAGGAUCACCCAUGUAAUAGCGUGAGAGUAAAUUAAUAAAUAAU [JMF 83] (puzzle: Sensor for hsa-mir-208a)” was tested, and the “apparent KD of MS2 coat protein” value [1] was 14.5 nM, the “apparent KD of MS2 coat protein” value [2] was 44.7 nM and the “apparent KD of MS2 coat protein” value [3] was 13.5 nM.
With “AACUUACGACCACAGGAUAUACUGAGGCGGACAUGAGGAUCACCCAUGUAGGCAAAAUAAGGGCAGUAGAAGGGUGGUCUUUACA [Usbiraxe] (puzzle: Same State 2)” the “apparent KD of MS2 coat protein” value [1] was 18.4 nM, the “apparent KD of MS2 coat protein” value [2] was 18.8 nM and the “apparent KD of MS2 coat protein” value [3] was 27.5 nM.
In the case of “GGUUUAGUCAAGUGCCGUUGCACUUGAAAACAUGAGGAUCACCCAUGUUUGGGACAAGCUUUGCUCCUCGUCUUUCC [Tiatmaraen] (puzzle: Sensor for hsa-mir-208a)”, the “apparent KD of MS2 coat protein” value [1] is reported as 477 nM, the “apparent KD of MS2 coat protein” value [2] is reported as 66.3 nM and the “apparent KD of MS2 coat protein” value [3] is reported as 591 nM.
With “UGGCUCAGACGAGGAUAUAUGUGGUCACAUGAGGAUCACCCAUGUCUCGAGCUUCGGCUCGAGGCAUAGAAGGCGUCUGAGCCA [SSNG2/5-A2] (Eterna round: R96, puzzle: Same State NG 2)” the “apparent KD of MS2 coat protein” value (input ligand: FMN 200 uM) was 1300 nM, the “apparent KD of MS2 coat protein” value [4] was 50.8 nM and the “apparent KD of MS2 coat protein” value (input ligand: none) was 632 nM.
In the case of “UGUUAACAUGAGGAUCACCCAUGUCAAAUGAAUGCAGGAUAUGGGAAGUAAUAAGAUAAACCAGAAGGGCAAGUUG [Altered State 1-17 - Jieux - Same State 1] (puzzle: Same State 1)”, the “apparent KD of MS2 coat protein” value [1] is reported as 49.4 nM, the “apparent KD of MS2 coat protein” value [2] is reported as 162 nM and the “apparent KD of MS2 coat protein” value [3] is reported as 311 nM.
For “GCCGGCUGGUGAGGAUAUGGCGCCUUGUUGGUGCCAGAAGGCAUGUCUAUUGACAUGAGGAUCACCCAUGUGUUGUCGUUGGCG [salish99_SSNG1_r04_612] (Eterna round: R96, puzzle: Same State NG 1)”, the “apparent KD of MS2 coat protein” value (input ligand: FMN 200 uM) was 536 nM, the “apparent KD of MS2 coat protein” value [4] was 108 nM and the “apparent KD of MS2 coat protein” value (input ligand: none) was 183 nM.
With “AACCUACAUGAGGAUCACCCAUGUGUCUAAGGCACAGGAUAUCGACAGGCAAGACGCCUGCGAGAAGGGUGACCUA [Erononer] (puzzle: Same State 1)” the “apparent KD of MS2 coat protein” value [1] was 58.7 nM, the “apparent KD of MS2 coat protein” value [2] was 34.4 nM and the “apparent KD of MS2 coat protein” value [3] was 262 nM.
In the case of “GAUUAACAUGAGGAUCACCCAUGUCGUUAUAUGGGAGGAUAUACGUGGACCGUAGUCCGCGUAGAAGGCCUAAUUG [Mat - Same State 1 - Mod of JL - D23] (Eterna round: R96, puzzle: Same State 1)”, the “apparent KD of MS2 coat protein” value (input ligand: FMN 200 uM) is reported as 67.3 nM, the “apparent KD of MS2 coat protein” value [4] is reported as 115 nM and the “apparent KD of MS2 coat protein” value (input ligand: none) is reported as 262 nM.
For “AUACCAUCAGGAGGAUAUGGCACCUUAUUGGUGCCAGAAGGUCUAACAUGAGGAUCACCCAUGUGGGAGUGGUCUAAUGACCAC [Eli NG1ss - 86] (Eterna round: R96, puzzle: Same State NG 1)”, the “apparent KD of MS2 coat protein” value (input ligand: FMN 200 uM) was 73.7 nM, the “apparent KD of MS2 coat protein” value [4] was 72.3 nM and the “apparent KD of MS2 coat protein” value (input ligand: none) was 91 nM.
With “AUAAGUUCGAUGCUCGUCUCUCCGUACAAACAUGAGGAUCACCCAUGUGAUUGGACAAAAGCCCAAUCAGUAUGGCC [Cebeince] (puzzle: Sensor for hsa-mir-208a)” the “apparent KD of MS2 coat protein” value [1] was 35.9 nM, the “apparent KD of MS2 coat protein” value [2] was 21.4 nM and the “apparent KD of MS2 coat protein” value [3] was 40.9 nM.
“CUUGCCCAGUCAGGAUAUGGGAAAGGAAGUGUACCAGAAGGGACAAGAAAGGACAUGAGGAUCACCCAUGUCGGGCAGGCGAGA [PowerStrip SSNG 1.23] (Eterna round: R96, puzzle: Same State NG 1)” was tested, and the “apparent KD of MS2 coat protein” value (input ligand: FMN 200 uM) was 32.8 nM, the “apparent KD of MS2 coat protein” value [4] was 82.3 nM and the “apparent KD of MS2 coat protein” value (input ligand: none) was 97.1 nM.
With “AUGACAUGCACAGGAUAUUAGGCGCAGUACAGAUAAGAAGGGUGGAUCAGCAUACAUGAGGAUCACCCAUGUUGUUGUAACAUG [Same State 1 S2] (Eterna round: R96, puzzle: Same State NG 1)” the “apparent KD of MS2 coat protein” value [4] was 252 nM.
With “GAGCCAGUCCGAGGAUAUUCAUAUUAACACAUGAGGAUCACCCAUGUGGGCUCAGAAGAGCCCUGGGAGAAGGCGGACUGGCUC [SS-NG2-LRO16] (Eterna round: R96, puzzle: Same State NG 2)” the “apparent KD of MS2 coat protein” value (input ligand: FMN 200 uM) was 16.5 nM, the “apparent KD of MS2 coat protein” value [4] was 232 nM and the “apparent KD of MS2 coat protein” value (input ligand: none) was 297 nM.
For “AGUGGUGGUGCAGGAUAUGCCUCAAAAGCAUGGGUAGAAGGGCAAUACAAAGAAACUCUGACAUGAGGAUCACCCAUGUAGCAA [Eternabot solution 43] (Eterna round: R96, puzzle: Same State NG 1)”, the “apparent KD of MS2 coat protein” value (input ligand: FMN 200 uM) was 449 nM, the “apparent KD of MS2 coat protein” value [4] was 241 nM and the “apparent KD of MS2 coat protein” value (input ligand: none) was 395 nM.
